Laboratory results published in paper PMC9019252 (The Journal of Biological Chemistry, 2022).

B1: PABPC1 RRM2 including the RRM2-3 linker (residues 100-190) (domain or fragment)
chain: not shown
B2: PABPC1 RRM3 including the RRM3-4 linker (residues 191-289) (domain or fragment, human, UniProt P11940 191-289, looked up)
chain: TNVYIKNFGEDMDDERLKDLFGKFGPALSVKVMTDESGKSKGFGFVSFERHEDAQKAVDEMNGKELNGKQIYVGRAQKKVERQTELKRKFEQMKQDRIT
B3: Paip2A(25-83) (residues 25-83 of PABP-interacting protein 2A) (domain or fragment, human, UniProt Q9BPZ3 25-83, looked up)
chain: HEDDNPFAEYMWMENEEEFNRQIEEELWEEEFIERCFQEMLEEEEEHEWFIPARDLPQT
B4: PABPC1 RRM2/3 (residues 100-289) (domain or fragment, human)
chain: GPLGSNIFIKNLDKSIDNKALYDTFSAFGNILSCKVVCDENGSKGYGFVHFETQEAAERAIEKMNGMLLNDRKVFVGRFKSRKEREAELGARAKEFTNVYIKNFGEDMDDERLKDLFGKFGPALSVKVMTDESGKSKGFGFVSFERHEDAQKAVDEMNGKELNGKQIYVGRAQKKVERQTELKRKFEQMKQDRIT

Columns and labels:
[1] = target: B4; assay: NMR titration
[2] = target: poly(A)-binding protein C1 (PABPC1), full length (human, UniProt P11940 1-636); assay: SPR
[3] = target: PABPC1 RRM1/2/3/4 (residues 1-370) (human, UniProt P11940 1-370); assay: SPR
[4] = target: B3; assay: ITC
[5] = target: B1; assay: ITC
[6] = target: B2; assay: ITC
[7] = target: B4; assay: ITC

Row | dH [4] | stoichiometry N [4] | also measured | Binder
1 |  |  | binding result [1]: binds; binding result [2]: binds; binding result [3]: binds | PABP-interacting protein 2A (Paip2A), full length (natural protein, human, UniProt Q9BPZ3 1-127, looked up) MKDPSRSSTSPSIINEDVIINGHSHEDDNPFAEYMWMENEEEFNRQIEEELWEEEFIERCFQEMLEEEEEHEWFIPARDLPQTMDQIQDQFNDLVISDGSSLEDLVVKSNLNPNAKEFVPGVKYGNI
2 | -28.7 kcal/mol | 0.87 |  | B1
3 | -43 kcal/mol | 0.87 |  | B2
4 |  |  | Kd [5]: 4 µM; Kd [6]: 1.3 µM; Kd [7]: 0.0019 µM | B3
5 | -55 kcal/mol | 0.83 |  | B4
